Source: patent US20200339690A1 (JOUNCE THERAPEUTICS, published 2020)
Each block holds one binder with its values, some of them ahead of it.

Experiments:
[1] = molecular target: T1, human LILRB4 (human, UniProt Q8NHJ6 22-448); assay: flow cytometry, LILRB4 CHOs
T1 construct: Over-expressed on CHO-s cells; also called hLILRB4

[2] = molecular target: T2, human LILRB5 (human, UniProt O75023 24-590); assay: flow cytometry, LILRB5 CHOs
T2 construct: Over-expressed on CHO-s cells; also called hLILRB5
T2 sequence (O75023 24-590 P542R limits assumed): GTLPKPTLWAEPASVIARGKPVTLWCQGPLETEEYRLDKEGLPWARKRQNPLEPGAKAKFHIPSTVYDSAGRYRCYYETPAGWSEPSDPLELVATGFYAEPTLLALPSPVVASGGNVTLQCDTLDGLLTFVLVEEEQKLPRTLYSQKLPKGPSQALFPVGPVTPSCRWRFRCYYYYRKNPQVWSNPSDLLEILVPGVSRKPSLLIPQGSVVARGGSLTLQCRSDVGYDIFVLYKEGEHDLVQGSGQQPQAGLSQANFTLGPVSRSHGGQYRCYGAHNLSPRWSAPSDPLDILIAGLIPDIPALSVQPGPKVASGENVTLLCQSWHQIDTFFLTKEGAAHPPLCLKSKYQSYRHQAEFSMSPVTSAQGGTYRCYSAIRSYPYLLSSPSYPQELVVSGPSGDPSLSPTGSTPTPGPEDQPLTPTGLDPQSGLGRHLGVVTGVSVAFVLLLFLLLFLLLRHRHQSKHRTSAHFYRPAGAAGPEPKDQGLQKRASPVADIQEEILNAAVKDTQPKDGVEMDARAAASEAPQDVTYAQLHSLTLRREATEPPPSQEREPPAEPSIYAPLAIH

[3] = molecular target: T3, human LILRB1 (human, UniProt Q8NHL6 24-650); assay: flow cytometry, LILRB1 CHOs
T3 construct: Over-expressed on CHO-s cells; also called hLILRB1
T3 sequence (Q8NHL6 24-650 limits assumed): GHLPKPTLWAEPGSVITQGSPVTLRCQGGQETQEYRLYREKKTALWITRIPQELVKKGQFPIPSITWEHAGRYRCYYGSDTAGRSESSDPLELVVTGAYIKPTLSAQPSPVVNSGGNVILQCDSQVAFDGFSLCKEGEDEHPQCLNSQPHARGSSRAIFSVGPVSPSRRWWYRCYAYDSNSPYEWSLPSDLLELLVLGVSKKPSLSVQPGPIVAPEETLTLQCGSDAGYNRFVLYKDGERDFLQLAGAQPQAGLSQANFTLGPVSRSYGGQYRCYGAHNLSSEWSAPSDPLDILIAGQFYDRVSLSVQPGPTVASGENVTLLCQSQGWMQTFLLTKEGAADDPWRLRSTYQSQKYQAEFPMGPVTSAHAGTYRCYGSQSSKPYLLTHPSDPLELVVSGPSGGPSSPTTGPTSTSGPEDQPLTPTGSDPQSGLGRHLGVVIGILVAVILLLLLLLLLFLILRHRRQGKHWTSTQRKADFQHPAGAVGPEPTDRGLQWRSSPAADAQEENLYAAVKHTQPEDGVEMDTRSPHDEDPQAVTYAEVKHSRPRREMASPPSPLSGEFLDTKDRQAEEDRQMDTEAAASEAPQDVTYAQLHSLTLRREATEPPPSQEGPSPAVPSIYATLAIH

[4] = molecular target: T4, human LILRB2 expressed on cells (human, UniProt Q8N423 22-597); assay: flow cytometry, LILRB2 CHOs
T4 construct: CHO-s cells over-expressing full-length human LILRB2, or primary human macrophages and dendritic cells; also called hLILRB2-CHO-s; hLILRB2+ CHO-s
T4 sequence (Q8N423 other isoform, or with tags, fused parts or gaps limits assumed): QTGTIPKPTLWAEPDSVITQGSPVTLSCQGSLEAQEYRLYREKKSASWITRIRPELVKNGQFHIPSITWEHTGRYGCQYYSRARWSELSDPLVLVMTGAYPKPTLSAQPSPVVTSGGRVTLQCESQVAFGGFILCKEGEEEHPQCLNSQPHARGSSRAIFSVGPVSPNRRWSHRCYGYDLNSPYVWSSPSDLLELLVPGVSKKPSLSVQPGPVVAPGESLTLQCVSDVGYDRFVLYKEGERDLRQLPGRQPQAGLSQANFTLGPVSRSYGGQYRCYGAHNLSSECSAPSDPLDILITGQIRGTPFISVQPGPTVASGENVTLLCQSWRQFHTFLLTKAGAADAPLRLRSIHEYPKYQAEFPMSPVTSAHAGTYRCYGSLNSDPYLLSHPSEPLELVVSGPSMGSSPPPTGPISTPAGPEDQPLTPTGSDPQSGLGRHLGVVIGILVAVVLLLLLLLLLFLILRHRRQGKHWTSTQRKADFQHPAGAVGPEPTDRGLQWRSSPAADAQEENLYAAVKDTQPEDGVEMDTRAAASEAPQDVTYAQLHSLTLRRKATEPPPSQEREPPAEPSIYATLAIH

[5] = molecular target: T5, human LILRA2 (human, UniProt Q8N149 24-483); assay: flow cytometry, LILRA2 CHOs
T5 construct: Over-expressed on CHO-s cells; also called hLILRA2
T5 sequence (Q8N149 24-483 S135L limits assumed): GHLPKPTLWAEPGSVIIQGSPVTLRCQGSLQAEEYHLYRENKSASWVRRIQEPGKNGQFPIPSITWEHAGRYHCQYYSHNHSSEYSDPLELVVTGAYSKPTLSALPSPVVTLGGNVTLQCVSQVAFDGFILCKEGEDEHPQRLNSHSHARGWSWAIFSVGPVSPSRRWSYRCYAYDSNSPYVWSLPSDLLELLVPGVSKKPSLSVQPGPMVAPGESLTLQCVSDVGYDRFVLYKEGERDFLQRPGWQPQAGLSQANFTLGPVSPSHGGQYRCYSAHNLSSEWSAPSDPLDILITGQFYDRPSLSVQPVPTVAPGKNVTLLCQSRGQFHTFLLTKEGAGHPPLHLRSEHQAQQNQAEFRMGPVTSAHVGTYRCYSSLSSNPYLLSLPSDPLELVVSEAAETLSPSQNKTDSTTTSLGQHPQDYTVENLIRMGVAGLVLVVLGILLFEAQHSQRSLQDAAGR

[6] = molecular target: T6, human LILRA6 (human, UniProt Q6PI73 24-481); assay: flow cytometry, LILRA6 CHOs
T6 construct: Over-expressed on CHO-s cells; also called hLILRA6
T6 sequence (Q6PI73 24-481 limits assumed): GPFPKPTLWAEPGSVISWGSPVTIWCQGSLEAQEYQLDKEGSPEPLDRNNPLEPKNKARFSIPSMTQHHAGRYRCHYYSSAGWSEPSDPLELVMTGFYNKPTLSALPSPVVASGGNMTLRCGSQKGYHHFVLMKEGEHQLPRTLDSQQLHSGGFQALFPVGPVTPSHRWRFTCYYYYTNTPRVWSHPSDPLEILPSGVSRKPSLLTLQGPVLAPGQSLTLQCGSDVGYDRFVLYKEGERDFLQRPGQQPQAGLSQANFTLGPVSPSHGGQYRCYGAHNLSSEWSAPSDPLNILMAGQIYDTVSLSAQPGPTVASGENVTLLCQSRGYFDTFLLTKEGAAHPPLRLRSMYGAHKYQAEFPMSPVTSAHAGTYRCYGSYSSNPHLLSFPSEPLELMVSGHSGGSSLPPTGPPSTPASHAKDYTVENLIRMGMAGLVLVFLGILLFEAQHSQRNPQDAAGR

[7] = molecular target: T7, human LILRA5 (human, UniProt A6NI73 42-299); assay: flow cytometry, LILRA5 CHOs
T7 construct: Over-expressed on CHO-s cells; also called hLILRA5
T7 sequence (A6NI73 42-299 limits assumed): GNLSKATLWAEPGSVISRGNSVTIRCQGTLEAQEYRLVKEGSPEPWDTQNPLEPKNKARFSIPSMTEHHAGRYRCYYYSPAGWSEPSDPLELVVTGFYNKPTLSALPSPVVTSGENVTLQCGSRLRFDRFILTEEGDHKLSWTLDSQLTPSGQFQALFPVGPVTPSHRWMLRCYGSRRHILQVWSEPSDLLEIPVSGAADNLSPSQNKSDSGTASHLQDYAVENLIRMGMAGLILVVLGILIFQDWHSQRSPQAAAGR

[8] = molecular target: T4, human LILRB2 expressed on cells; assay: blocking of HLA-G tetramer on LILRB2 CHOs, flow cytometry, mAb 10 ug/mL
Protocol: (§1) In the secondary screen, 1×10⁵ CHO-s cells over-expressing human LILRB2 were plated in 96-well round-bottom tissue culture-treated plate and washed twice with 1×DPBS (Gibco) and incubated with 10 μg/mL primary antibody (anti-LILRB2 mAbs or control) prepared in 50 μL FACS buffer (1×DPBS containing 2% HI-FBS (Sigma)+0.05% Sodium Azide). After incubation with mAbs for 30 minutes at 4° C., cells were washed twice in FACS buffer and then resuspended in 50 μL of FACS buffer containing 5 μg/mL APC-conjugated HLA-A2 or HLA-G tetramer (Fred Hutch). Cells were incubated protected from light for 30-60 minutes at 4° C. After incubation with tetramer, cells were washed in FACS buffer and re-suspended in fix buffer (1.5% paraformaldehyde diluted in 1×DPBS). Samples were analyzed using the Celesta flow cytometer analyzer (BD Biosciences). Data represent percent tetramer blocked by mAbs relative to tetramer alone, calculated according to the following equation: […]

[9] = molecular target: T8, human LILRA3 (human, UniProt Q8N6C8 24-439); assay: flow cytometry, LILRA3 CHOs
T8 construct: Over-expressed on CHO-s cells; also called hLILRA3
T8 sequence (Q8N6C8 24-439 limits assumed): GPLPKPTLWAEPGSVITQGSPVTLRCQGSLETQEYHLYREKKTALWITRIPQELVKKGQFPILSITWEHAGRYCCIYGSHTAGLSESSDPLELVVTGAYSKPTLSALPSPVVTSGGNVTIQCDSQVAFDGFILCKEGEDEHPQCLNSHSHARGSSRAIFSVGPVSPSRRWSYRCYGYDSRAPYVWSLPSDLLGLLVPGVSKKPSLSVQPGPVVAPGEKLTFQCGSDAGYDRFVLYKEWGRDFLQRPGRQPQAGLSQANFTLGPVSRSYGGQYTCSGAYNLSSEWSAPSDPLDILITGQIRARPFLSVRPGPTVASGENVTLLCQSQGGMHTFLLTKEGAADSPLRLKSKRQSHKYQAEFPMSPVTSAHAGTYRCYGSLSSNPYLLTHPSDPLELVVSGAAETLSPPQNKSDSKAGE

[10] = molecular target: T9, human LILRB3 (human, UniProt O75022 24-631); assay: flow cytometry, LILRB3 CHOs
T9 construct: Over-expressed on CHO-s cells; also called hLILRB3

[11] = molecular target: T10, human LILRA1 (human, UniProt O75019 17-489); assay: flow cytometry, LILRA1 CHOs
T10 construct: Over-expressed on CHO-s cells; also called hLILRA1
T10 sequence (O75019 17-489 limits assumed): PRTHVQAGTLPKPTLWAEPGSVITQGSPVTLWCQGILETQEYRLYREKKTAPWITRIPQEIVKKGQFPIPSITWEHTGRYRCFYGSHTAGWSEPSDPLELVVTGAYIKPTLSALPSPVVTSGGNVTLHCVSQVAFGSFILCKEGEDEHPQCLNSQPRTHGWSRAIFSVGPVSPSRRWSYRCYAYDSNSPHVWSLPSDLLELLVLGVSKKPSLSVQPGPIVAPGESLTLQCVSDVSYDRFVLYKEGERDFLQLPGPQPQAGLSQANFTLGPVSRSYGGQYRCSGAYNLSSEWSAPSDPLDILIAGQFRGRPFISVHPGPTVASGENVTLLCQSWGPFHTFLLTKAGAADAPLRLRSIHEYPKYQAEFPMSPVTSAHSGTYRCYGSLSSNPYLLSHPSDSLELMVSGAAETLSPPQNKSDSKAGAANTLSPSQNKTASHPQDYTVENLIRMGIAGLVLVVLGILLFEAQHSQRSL

[12] = molecular target: T4, human LILRB2 expressed on cells; assay: cell-based or functional assay
[13] = molecular target: T4, human LILRB2 expressed on cells; assay: blocking of HLA-A2 tetramer on LILRB2 CHOs, flow cytometry, mAb 10 ug/mL
Protocol: as §1

- binding (fold over iso) [1]: 1.02 fold over iso
- binding result [1]: no binding
- binding (fold over iso) [2]: 1 fold over iso
- binding result [2]: no binding
- binding (fold over iso) [3]: 0.94 fold over iso
- binding result [3]: no binding
- binding (fold over iso) [4]: 30.1 fold over iso
- binding (fold over iso) [5]: 1.58 fold over iso
- binding result [5]: no binding
- binding (fold over iso) [6]: 1.23 fold over iso
- binding result [6]: no binding
- binding (fold over iso) [7]: 0.96 fold over iso
- binding result [7]: no binding
- HLA-G:LILRB2 CHOs blocking (% blocked) [8]: -156 % blocked
- binding (fold over iso) [9]: 1.05 fold over iso
- binding result [9]: no binding
- binding (fold over iso) [10]: 0.97 fold over iso
- binding result [10]: no binding
- binding (fold over iso) [11]: 0.89 fold over iso
- binding result [11]: no binding
- CCL2 production (fold over LPS alone) [12]: 0.95 fold over LPS alone
- IL-6 production (fold over LPS alone) [12]: 1.1 fold over LPS alone
- IL-10 production (fold over LPS alone) [12]: 0.97 fold over LPS alone
- TNFa production (fold over LPS alone) [12]: 1.27 fold over LPS alone
- HLA-A2:LILRB2 CHOs blocking (% blocked) [13]: -208 % blocked
B1: J-03 (antibody, human IgG4 S228P, kappa, V domains shown)
VH: QVQLQQSGAELVRPGASVTLSCKASGYKFTDYEMHWVKQTPVHGLEWIGAIDPETNGTAYNKKFKGKAILTADKSSSTAYMELRSLTSEDSAVYYCTRGDYDFSAWFAYWGQGTLVTVSA
VL: DIVLTQSPASLAVSLGQRATISCRASESVDNYDISFMHWYQQKPGQPPKLLIYRASNLESGIPARFSGSGSRTDFTLTINPVETDDVATYYCQQSNKDPRTFGGGTKLEIKR
notes: Human IgG4 chimera of murine origin

- binding (fold over iso) [1]: 0.83 fold over iso
- binding result [1]: no binding
- binding (fold over iso) [2]: 1.08 fold over iso
- binding result [2]: no binding
- binding (fold over iso) [3]: 0.95 fold over iso
- binding result [3]: no binding
- binding (fold over iso) [4]: 33.8 fold over iso
- binding (fold over iso) [5]: 1.62 fold over iso
- binding result [5]: no binding
- binding (fold over iso) [6]: 1.3 fold over iso
- binding result [6]: no binding
- binding (fold over iso) [7]: 0.74 fold over iso
- binding result [7]: no binding
- HLA-G:LILRB2 CHOs blocking (% blocked) [8]: -255 % blocked
- binding (fold over iso) [9]: 0.93 fold over iso
- binding result [9]: no binding
- binding (fold over iso) [10]: 0.9 fold over iso
- binding result [10]: no binding
- binding (fold over iso) [11]: 0.88 fold over iso
- binding result [11]: no binding
- CCL2 production (fold over LPS alone) [12]: 1 fold over LPS alone
- IL-6 production (fold over LPS alone) [12]: 1.36 fold over LPS alone
- IL-10 production (fold over LPS alone) [12]: 0.95 fold over LPS alone
- TNFa production (fold over LPS alone) [12]: 1.18 fold over LPS alone
- HLA-A2:LILRB2 CHOs blocking (% blocked) [13]: -319 % blocked
B2: J-04 (antibody, human IgG4 S228P, kappa, V domains shown)
VH: QVQLQQSGAELVRPGASVTLSCKASGYTFADYEIHWVKQTPVHGLEWIGAIDPETGGTAYNQKFKGKAILTADKSSSTAYMELRSLTSEDSAVYYCTRYYDYDDAMDYWGQGTSVTVSS
VL: QIVLTQSPAIMSASPGEKVTMTCSASSSVSFMHWYQQKSGTSPKRWIYGTSKLASGVPARFSGSGSGTSYSLTISSMEAEDAATYYCQQWNGNPFTFGSGTKLETKR
notes: as for B1
